The results in this text go back to patent publication US20200239570A1 (CRESCENDO BIOLOGICS, published 2020).

The target of test [1] is T1, recombinant human PD-1 Fc chimera (human, UniProt Q15116 25-167).
T1 construct: Bought (R&D 1086-PD); Labelled with europium cryptate in the PD-L2 HTRF assay; also called human PD-1 (R&D Systems cat no. 1086-PD); human PD-1-huFc; not shown: human Fc of the bought chimera
The experiment in a line: SPR (Biacore T200), PD-1-huFc amine-coupled to CM5, single cycle kinetics, 1:1 fit. The method, then:
Binding kinetics of certain VH single domain antibodies binding to human PD-1-huFc were measured by surface plasmon resonance (SPR) technology using Biacore T200 instrument (GE Healthcare). Recombinant human PD-1-huFc was immobilized by standard amine coupling to CM5 sensorschip (GE Healthcare) using 0.01 mg/ml solution of antigen in 10 mM sodium acetate at pH 5.5. For the reference flow cell, a blank immobilisation was carried out. Single cycle kinetics assays were used to study the interaction, a five point, three-fold dilution series of each Humabody® was made with a top concentration of 30 nM. The binding kinetics were followed by flowing the Humabody® over the chip surface in HBS EP+ buffer at a flow rate of 30 μl/min. The contact time for each of the association steps was 180 seconds and the dissociation step was varied between 1200-3600 seconds. The data was fitted to a 1:1 binding model after double reference subtraction using the Biacore T200 Evaluation software.
In general terms: In SPR one partner is held on a chip, and binding of the other changes the refractive index at the surface.

For test [2], the target named is T2, human PD-1 expressed on cells (CHO human PD-1 cells) (human, UniProt Q15116 21-288).
T2 construct: CHO cells in the FMAT assays; Jurkat reporter cells in the reporter assay; primary CD4+ T cells in the mixed lymphocyte reaction; also called CHO TREX human PD1 cell line; CHO PD-1
T2 sequence (Q15116 21-288): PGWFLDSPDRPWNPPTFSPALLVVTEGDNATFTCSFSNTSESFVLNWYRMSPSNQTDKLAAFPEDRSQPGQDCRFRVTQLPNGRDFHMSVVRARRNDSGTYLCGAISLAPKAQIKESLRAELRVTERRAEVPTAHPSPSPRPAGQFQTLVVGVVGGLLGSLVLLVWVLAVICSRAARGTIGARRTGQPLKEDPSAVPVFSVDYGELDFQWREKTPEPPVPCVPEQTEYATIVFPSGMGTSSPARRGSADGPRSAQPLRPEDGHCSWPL
Briefly: FMAT, His-tagged VH on CHO human PD-1 cells.

Test [3] deals with T3, cynomolgus PD-1 (Acro Biosystems cat no. PD1-C5254) (cynomolgus, UniProt B0LAJ3 25-170).
T3 construct: bought recombinant protein; also called cyno PD-1; cynomolgus PD-1 recombinant protein; not shown: Human Fc tag of the vendor's construct, and any linker to it; The Fc is implied by detection with anti human-Fc cryptate
T3 sequence (B0LAJ3 entry or part of it limits assumed): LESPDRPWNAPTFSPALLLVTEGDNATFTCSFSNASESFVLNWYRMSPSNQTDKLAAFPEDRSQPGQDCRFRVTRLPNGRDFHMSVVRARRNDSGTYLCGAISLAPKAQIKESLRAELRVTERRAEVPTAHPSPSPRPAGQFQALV
Briefly: HTRF binding assay, His-tagged VH on 2 nM recombinant PD-1. The method, then: (§1) Purified VH were tested for their ability to bind to human PD-1 (R&D Systems cat no. 1086-PD), cynomolgus PD-1 (Acro Biosystems cat no. PD1-C5254) and mouse PD1 (R&D Systems cat no. 1021-PD) in an HTRF Binding assay format. All reagents and serially diluted VH were prepared in assay buffer containing PBS, 0.1% BSA and 0.4M Potassium Fluoride. Samples or assay buffer (non-specific binding) were incubated with 2 nM human/cynomolgus or mouse PD-1, 1 nM Anti human-Fc Cryptate PAb (Cisbio cat. no. 61HFCKLB) and 30 nM anti His-D2 (CisBio cat no 61HISDLA) in black 384-shallow well assay plates for a minimum of 3 hours at room temperature. Time-resolved fluorescent emission at 620 nm and 665 nm was measured following excitation at 337 nm on the BMG PHERAstar plate reader. The HTRF ratio were calculated ((665 nm emission/620 nm emission)*10000) and the data corrected for (non-specific binding) to give the specific binding signal.
A general note: TR-FRET usually uses a lanthanide donor and a delayed reading to cut background.

Test [4] has as its target T1, recombinant human PD-1 Fc chimera. The test is described as above. The method, then: as §1
For test [5], the target named is T2, human PD-1 expressed on cells (CHO …). The experiment in a line: 2.1 epitope competition assay (FMAT, CHO human PD-1 cells; competitor 2.1-Strep); VH pre-incubated in mouse serum at 37 C, Day 7. The method, then: (§2) Serum stability of VH was assessed by measurement of its activity following incubation for 0, 1, 4 or 7 days in both human and mouse serum (Sigma M5905). The pre-incubated samples were serially diluted and tested in the 2.1 epitope competition assay.
(§3) For the epitope competition assay reagents were prepared in FMAT assay buffer. […] Plates were incubated for a minimum of 1.5 hours at room temperature then fluorescence measured in the FL2 (502 nm-537 nm) and FL5 (677-800 nm) channels on the Mirrorball plate reader (TTP) following excitation at 488 nm and 640 nm. Data was expressed as a % of the total binding control (i.e. % control) after subtraction of the background signal determined from the non-specific binding control wells.

The target is the same in test [6]. Briefly: 2.1 epitope competition assay (FMAT, CHO human PD-1 cells; competitor 2.1-Strep); VH pre-incubated in human serum at 37 C, Day 4. As for the experimental part: as §2, §3
Test [7] shares this target. Briefly: 2.1 epitope competition assay (FMAT, CHO human PD-1 cells; competitor 2.1-Strep); VH pre-incubated in mouse serum, Day 0. As for the experimental part: as §2, §3
Test [8] shares this target. The experiment in a line: 2.1 epitope competition assay (FMAT, CHO human PD-1 cells; competitor 2.1-Strep); VH pre-incubated in human serum, Day 0; Day 0, human serum. The method, then: as §2, §3
Test [9] has as its target T4, mouse PD1 (R&D Systems cat no. 1021-PD) (mouse, UniProt Q02242 25-167).
T4 construct: bought recombinant protein; also called mouse PD-1 protein
T4 sequence (looked up): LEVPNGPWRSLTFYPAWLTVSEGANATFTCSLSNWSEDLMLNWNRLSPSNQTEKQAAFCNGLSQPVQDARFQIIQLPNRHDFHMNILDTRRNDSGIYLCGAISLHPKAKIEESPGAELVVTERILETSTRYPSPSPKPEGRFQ
Briefly: HTRF binding assay, 2 nM mouse PD-1.

For test [10], the target named is T2, human PD-1 expressed on cells (CHO …). The experiment in a line: FMAT epitope competition on CHO human PD-1 cells; competitor 2 nM 1.1-Strep tagged protein. As for the experimental part: as §3
Test [11] shares this target. The experiment in a line: 2.1 epitope competition assay (FMAT, CHO human PD-1 cells; competitor 2.1-Strep); VH pre-incubated in mouse serum at 37 C, Day 1. As for the experimental part: as §2, §3
Test [12] has the same target. Briefly: 2.1 epitope competition assay (FMAT, CHO human PD-1 cells; competitor 2.1-Strep); VH pre-incubated in human serum at 37 C, Day 7. The method, then: as §2, §3
Test [13] has the same target. Briefly: FMAT epitope competition on CHO human PD-1 cells; competitor 2 nM 2.1-Strep tagged protein. As for the experimental part: as §3
The target is the same in test [14]. The experiment in a line: 2.1 epitope competition assay (FMAT, CHO human PD-1 cells; competitor 2.1-Strep); VH pre-incubated in mouse serum at 37 C, Day 4. As for the experimental part: as §2, §3
The target is the same in test [15]. The experiment in a line: 2.1 epitope competition assay (FMAT, CHO human PD-1 cells; competitor 2.1-Strep); VH pre-incubated in human serum at 37 C, Day 1. As for the experimental part:
as §2, §3

T1 sequence (Q15116 25-167, change not shown): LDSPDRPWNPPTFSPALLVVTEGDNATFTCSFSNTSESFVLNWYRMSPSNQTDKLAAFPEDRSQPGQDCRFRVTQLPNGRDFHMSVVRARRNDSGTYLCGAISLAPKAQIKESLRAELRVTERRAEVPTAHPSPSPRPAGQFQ

B1: Humabody VH 1.39 (VHH)
VHH: EVQLVESGGGLVQPGRSLRLSCAASGFTFDDYALHWVRQAPGKDLEWVSGISWNGGSYGYADSVKGRFTISRDNAKNSLYLQMNSLRAEDTALYYCVREKGPGLTGSTADYYGLDAWGQGTMVTVSS
notes: human VH single domain antibody
Take B1: in test [1], the Kd turned out to be 4.24 nM. Further, in [1], the koff is 0.00134 s⁻¹. In addition, the kon in [1] was 316000 M⁻¹ s⁻¹. In addition, the half-maximal effective concentration (EC50) in test [2] turned out to be 0.6 nM; in [3], 6 nM; in test [4], 2.6 nM. The IC50 in test [5] came out at 11.6 nM; in [6], 10.2 nM; in test [7], 8.7 nM; in [8], 12.9 nM; in [10], 8.9 nM; in test [11] it was 9.3 nM. Further, the IC50 in [12] is 9.3 nM; in test [13] it was 9.7 nM; in test [14] it was 11.1 nM; in test [15], 10.1 nM. For the same molecule, the binding result in [9] is “no binding”.

Broadly, the Kd is a measure of binding affinity in units of concentration. The koff is a measure of how fast the partners let go of each other. For orientation: kon means the second-order rate constant of association. Broadly, the EC50 is the concentration giving half of the maximal effect. In general, IC50 refers to the concentration that inhibits the measured activity by half.
